Test results from patent US20200299384A1.

Molecular target: mouse CD3epsilon protein (mouse) (UniProt P22646)
Test: ELISA, antigen coated on plate

mouse CD3epsilon protein (mouse), sequence (P22646 22-108 limits assumed): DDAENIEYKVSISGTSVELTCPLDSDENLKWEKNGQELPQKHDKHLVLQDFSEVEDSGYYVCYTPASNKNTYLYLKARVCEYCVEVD

| Binder | ELISA A450 [A450] |
| --- | --- |
| WBP3311_2.306.4 (antibody, IgG2b, V domains shown) VH: QVQLQQSGPELVKPGASVRISCKASGFAFTDYYIHWVKQRPGQGLEWIGWISPGNVNTKYNENFKGRATLTADLSSSTAYMQLSSLTSEDSAVYFCARDGYSLYYFDYWGQGTTLTVSS VL: DIVMSQSPSSLTVSAGEKVTMSCKSSQSLLNSRTRKNYLAWYQQKPGQSPKLLIYWASTRQSGVPDRFTGSGSGTAFTLTISGVQAEDLAVYFCTQSHTLRTFGGGTKLEIK | 0.711 |
| WBP3311_2.383.47 (antibody, V domains shown) VH: QVQLQQSGPELVKPGASVRISCKTSGFTFTNYYIHWVIQRPGQGLEWIGWISPENGNTKYNENFQDKATLTADISSSTAYMHLSSLTSEDSAVYFCARDGYSLYYFDYWGQGTTLTVSS VL: DIVMSQSPSSLTVSAGEKVTMSCKSSQSLLNSRTRKNYLAWYQQKPGQSPKLLIYWASIRVSGVPDRFTGSGSGTTFTLTISGVQAEDLAVYYCTQSHTLRTFGGGTKLEIK | 0.666 |
| WBP331_2.488.33 (antibody, V domains shown) VH: QVQLQQSGPELVKPGTSVKISCKASGFSFTNYYIHWVKQRPGQGPEWIGWIFPGTVNTKYNEKFKGKATLTADTSSNTAFMQLSSLTSADSAVYFCARDSVGIYYFDFWGLGTTLTVSS VL: DIVMSQSPSSLAVSAGEKVTVSCKSSQSLLNNRTRKNYLAWYQQKPGQSPKLLIYWASTRESGVPDRFTGSGSGTDFTLTISSVQAEDLAVYYCTQSFILRTFGGGTKLEIK | 0.607 |

Continued, values first:

| ELISA A450 [A450] | Binder |
| --- | --- |
| 0.709 | WBP3311_2.400.5 (antibody, V domains shown) VH: QVQLQQSGPELVNPGASVKISCKASGYSFTNYYLHWVKQRPGQGLEWIGWIFPESDNTKYNEKLKGKATLTADTSSDTAYMHLSSLTFEDSAVYFCARDSVGNYFFDFWGQGTTLTVSS VL: DIVMSQSPSSLAVSAGEKVTMRCKSSQSLVNNRTRKNYLAWYQQKPGQPPKLLIYWASTRESGVPDRFTGSGSGTDFTLTISSVQAEDLAVYYCAQSFILRTFGGGTKLEIK |
| 0.61 | WBP3311_2.482.5 (antibody, V domains shown) VH: QVQLQQSGPELVKPGSSVKISCKPSGYTFTTYYIHWVKQRPGQGLEWIGWIFPGSDNIKYNENFKDKATLTADTSSSTAYMQLSSLTSEDSAVYFCARDSVSRYYFDYWGQGTILTVSS VL: DIVMSQSPSSLAVSAGEKVTMSCKSSQSLVNDRTRKNYLAWYQQKPGLSPKLLIYWASTRESGVPDRFTGSGSGTDFTLTISSVQAEDLAVYYCAQSFILRTFGGGTKLEIK |
| 0.6 | WBP3311_2.844.8 (antibody, V domains shown) VH: QVQLQQSGPELVKPGASVRISCKASGFAFTDYYIHWVKQRPGQGLEWIGWISPGNVNTKYNENFKGRATLTADLSSSTAYMQLSSLTSEDSAVYFCARDGYSLYYFDYWGQGTTLTVSS VL: DIVMSQSPSSLTVSAGEKVTMSCKSSQSLLNSRTRKNYLAWYQQKPGQSPKLLIYWASTRESGVPDRFTGSGSGTAFTLTISGVQAEDLAVYFCTQSHTLRTFGGGTKLEIK |
